Earlier results in publication PMC8526019.

How the values were obtained:
[1] = biological target: Atg7 (Saccharomyces cerevisiae) (UniProt P38862)
[2] = biological target: ATG3 (Homo sapiens) (UniProt Q9NT62)
[3] = biological target: ATG14 (Homo sapiens) (UniProt Q6ZNE5)
[4] = biological target: E-cadherin (Homo sapiens) (UniProt P12830)

Chain of UniProt Q9NT62 (Q9NT62 whole entry): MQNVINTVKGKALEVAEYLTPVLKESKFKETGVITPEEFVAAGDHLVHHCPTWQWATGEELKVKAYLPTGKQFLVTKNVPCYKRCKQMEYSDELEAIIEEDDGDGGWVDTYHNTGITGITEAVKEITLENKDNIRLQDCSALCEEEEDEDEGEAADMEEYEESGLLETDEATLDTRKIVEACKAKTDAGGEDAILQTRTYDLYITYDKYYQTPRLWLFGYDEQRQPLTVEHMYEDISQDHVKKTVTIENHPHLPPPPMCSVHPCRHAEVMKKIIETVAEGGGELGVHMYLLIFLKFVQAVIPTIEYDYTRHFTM
Chain of UniProt Q6ZNE5 (Q6ZNE5 whole entry): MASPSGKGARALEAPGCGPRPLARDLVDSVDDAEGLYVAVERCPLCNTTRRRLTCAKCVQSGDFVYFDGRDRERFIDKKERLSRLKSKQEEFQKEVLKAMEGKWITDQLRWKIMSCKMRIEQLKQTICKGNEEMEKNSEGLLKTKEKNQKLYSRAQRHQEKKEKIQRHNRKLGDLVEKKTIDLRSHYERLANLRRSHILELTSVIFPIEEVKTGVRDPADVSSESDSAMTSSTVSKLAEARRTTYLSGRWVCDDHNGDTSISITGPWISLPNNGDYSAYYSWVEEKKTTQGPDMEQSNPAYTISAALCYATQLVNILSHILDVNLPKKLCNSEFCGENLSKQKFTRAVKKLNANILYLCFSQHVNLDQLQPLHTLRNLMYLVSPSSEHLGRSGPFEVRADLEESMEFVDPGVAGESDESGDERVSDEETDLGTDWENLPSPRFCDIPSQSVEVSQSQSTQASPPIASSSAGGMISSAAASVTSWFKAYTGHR

Atg7 (from UniProt P38862)
Kd [1]: 0.001 µM

ATG12 (from UniProt O94817)
Kd [2]: 0.05 µM

BECN1 (from UniProt Q14457)
Kd [3]: 3.2 µM

E-cadherin (from UniProt P12830)
Kd [4]: 160 µM
